Target: plasma kallikrein (human) (UniProt P03952)
Experiment: cell-based or functional assay

Sequence of plasma kallikrein (human) (P03952 20-638 limits assumed): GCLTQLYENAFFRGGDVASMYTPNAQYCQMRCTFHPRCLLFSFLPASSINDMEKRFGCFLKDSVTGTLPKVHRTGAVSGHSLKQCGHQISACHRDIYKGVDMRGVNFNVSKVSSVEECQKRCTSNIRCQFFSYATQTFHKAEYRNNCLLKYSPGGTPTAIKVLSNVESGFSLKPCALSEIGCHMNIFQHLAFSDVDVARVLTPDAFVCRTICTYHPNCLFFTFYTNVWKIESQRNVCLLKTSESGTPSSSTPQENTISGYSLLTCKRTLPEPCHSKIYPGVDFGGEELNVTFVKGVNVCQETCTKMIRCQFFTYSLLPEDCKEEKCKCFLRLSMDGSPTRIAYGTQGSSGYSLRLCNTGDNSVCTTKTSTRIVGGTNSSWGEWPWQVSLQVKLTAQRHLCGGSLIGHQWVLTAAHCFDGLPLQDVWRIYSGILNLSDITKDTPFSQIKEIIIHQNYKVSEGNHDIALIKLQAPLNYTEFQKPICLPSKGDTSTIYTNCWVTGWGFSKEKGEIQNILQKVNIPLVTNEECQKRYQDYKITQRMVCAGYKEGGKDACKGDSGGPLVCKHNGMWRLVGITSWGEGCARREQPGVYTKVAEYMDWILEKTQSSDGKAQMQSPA

B1: lanadelumab (antibody, V domains shown)
VH: EVQLLESGGGLVQPGGSLRLSCAASGFTFSHYIMMWVRQAPGKGLEWVSGIYSSGGITVYADSVKGRFTISRDNSKNTLYLQMNSLRAEDTAVYYCAYRRIGVPRRDEFDIWGQGTMVTVSS
VL: DIQMTQSPSTLSASVGDRVTITCRASQSISSWLAWYQQKPGKAPKLLIYKASTLESGVPSRFSGSGSGTEFTLTISSLQPDDFATYYCQQYNTYWTFGQGTKVEI
Binder B1 has an IC50 for lanadelumab inhibition of 2-chain HMWK generation (FXIIa-activated citrated plasma, Western blot and sandwich ELISA) of 212 nM.

Reference: US20210270842A1
